Results published in patent US20240269235A1 (Gilead, published 2024).
Numbering of substitutions follows the chain as printed.

T1: trimeric murine IL-2 receptor (IL-2Rα, IL-2Rβ, and IL-2Rγ) on CTLL-2 cells (murine, UniProt P01590 22-268; P16297 27-539; P34902 23-369)
T1 sequence (looked up) 1: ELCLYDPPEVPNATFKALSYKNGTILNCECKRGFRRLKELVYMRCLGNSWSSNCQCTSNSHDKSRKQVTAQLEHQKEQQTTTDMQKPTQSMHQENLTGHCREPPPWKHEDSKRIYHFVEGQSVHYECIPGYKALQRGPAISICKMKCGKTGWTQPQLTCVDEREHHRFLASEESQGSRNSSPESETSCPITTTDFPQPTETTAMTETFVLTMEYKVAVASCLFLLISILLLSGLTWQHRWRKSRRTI
T1 sequence (looked up) 2: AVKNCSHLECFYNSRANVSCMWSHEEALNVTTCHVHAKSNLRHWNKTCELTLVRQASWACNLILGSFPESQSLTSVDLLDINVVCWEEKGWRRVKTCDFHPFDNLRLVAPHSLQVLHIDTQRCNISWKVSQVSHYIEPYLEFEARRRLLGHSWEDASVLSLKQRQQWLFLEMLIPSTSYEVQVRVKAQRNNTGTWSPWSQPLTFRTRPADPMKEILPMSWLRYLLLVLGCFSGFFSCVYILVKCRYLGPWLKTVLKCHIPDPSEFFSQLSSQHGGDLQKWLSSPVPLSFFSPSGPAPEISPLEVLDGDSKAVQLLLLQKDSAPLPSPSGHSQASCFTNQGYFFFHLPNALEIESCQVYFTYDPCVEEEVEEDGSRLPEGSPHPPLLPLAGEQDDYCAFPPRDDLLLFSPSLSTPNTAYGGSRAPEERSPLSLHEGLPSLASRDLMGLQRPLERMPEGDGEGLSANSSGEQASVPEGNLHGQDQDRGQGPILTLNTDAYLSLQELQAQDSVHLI
T1 sequence (looked up) 3: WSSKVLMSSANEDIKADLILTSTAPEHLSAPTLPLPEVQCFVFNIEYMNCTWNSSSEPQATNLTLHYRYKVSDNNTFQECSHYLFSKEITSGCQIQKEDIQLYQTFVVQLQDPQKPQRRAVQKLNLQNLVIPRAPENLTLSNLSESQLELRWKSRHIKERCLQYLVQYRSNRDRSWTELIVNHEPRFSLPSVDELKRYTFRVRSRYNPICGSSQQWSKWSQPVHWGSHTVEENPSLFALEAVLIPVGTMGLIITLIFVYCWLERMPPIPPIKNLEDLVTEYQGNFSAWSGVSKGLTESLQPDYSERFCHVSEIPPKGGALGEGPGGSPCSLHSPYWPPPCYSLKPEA

T2: human IL-2Rα on Treg cells (CD3+, CD4+, CD25hi, FoxP3+) of human PBMC (human, UniProt P01589 22-272)
T2 sequence (looked up): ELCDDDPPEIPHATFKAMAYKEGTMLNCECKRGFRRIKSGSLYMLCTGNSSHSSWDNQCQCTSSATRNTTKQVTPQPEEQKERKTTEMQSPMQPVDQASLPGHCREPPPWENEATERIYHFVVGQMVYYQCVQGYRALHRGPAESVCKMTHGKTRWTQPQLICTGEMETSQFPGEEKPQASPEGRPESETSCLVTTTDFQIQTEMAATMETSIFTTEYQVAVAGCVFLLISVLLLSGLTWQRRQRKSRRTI

T3: IL-2Rα (recombinant IL-2 receptor α, R&D Systems Cat #: 223-2A/CF), biotinylated (human, UniProt P01589 22-213, limits assumed, biotinylated using sulfo-NHS-LC-LC-Biotin)
T3 construct: Bought reagent; also used here as the IL-2Rα partner of the in-silico analysis of PDB 2B5I (another construct); also called IL-2RA; CD25
T3 sequence (looked up): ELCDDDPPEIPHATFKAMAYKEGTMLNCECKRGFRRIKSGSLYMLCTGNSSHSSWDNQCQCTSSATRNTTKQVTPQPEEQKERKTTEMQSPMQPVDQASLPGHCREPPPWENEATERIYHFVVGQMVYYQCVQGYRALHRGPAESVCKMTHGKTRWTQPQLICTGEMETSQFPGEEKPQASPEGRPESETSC

T4: IL-2Rβ (recombinant IL-2 receptor β, R&D Systems Cat #:224-2B-025/CF), biotinylated (UniProt P14784 27-239, limits assumed, biotinylated using sulfo-NHS-LC-LC-Biotin)
T4 construct: Bought reagent; also called IL-2RB; CD122
T4 sequence (looked up): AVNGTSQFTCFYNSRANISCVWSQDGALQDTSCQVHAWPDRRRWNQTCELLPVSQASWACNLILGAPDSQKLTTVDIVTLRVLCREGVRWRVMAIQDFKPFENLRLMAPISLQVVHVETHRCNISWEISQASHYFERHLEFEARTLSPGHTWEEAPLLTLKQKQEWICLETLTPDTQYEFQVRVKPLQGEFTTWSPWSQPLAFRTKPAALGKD

B1: Fc-IL-2v heterodimer 81.46 (hIL-2v_Δ1-5_R38G_C125S) (Fc fusion)
chain 1: ESKYGPPCPPCPAPEAAGGPSVFLFPPKPKDTLMISRTPEVTCVVVDVSQEDPEVQFNWYVDGVEVHNAKTKPREEQFNSTYRVVSVLTVLHQDWLNGKEYKCKVSNKGLPSSIEKTISKAKGQPREPQVYTLPPSQEEMTKNQVSLWCLVKGFYPSDIAVEWESNGQPENNYKTTPPVLDSDGSFFLYSRLTVDKSRWQEGNVFSCSVMHEALHNHYTQKSLSLSLGGGGGSGGGGSGGGGSGGGGSSTKKTQLQLEHLLLDLQMILNGINNYKNPKLTGMLTFKFYMPKKATELKHLQCLEEELKPLEEVLNLAQSKNFHLRPRDLISNINVIVLELKGSETTFMCEYADETATIVEFLNRWITFSQSIISTLT
chain 2: ESKYGPPCPPCPAPEAAGGPSVFLFPPKPKDTLMISRTPEVTCVVVDVSQEDPEVQFNWYVDGVEVHNAKTKPREEQFNSTYRVVSVLTVLHQDWLNGKEYKCKVSNKGLPSSIEKTISKAKGQPREPQVYTLPPSQEEMTKNQVSLSCAVKGFYPSDIAVEWESNGQPENNYKTTPPVLDSDGSFFLVSRLTVDKSRWQEGNVFSCSVMHEALHNRFTQKSLSLSLGK
notes: hIgG4 knob-in-hole Fc heterodimer, one IL-2v on the knob chain
B2: Fc-IL-2v heterodimer 92.46 (hIL-2v_Δ1-5_L72G_C125S) (Fc fusion)
chain 1: B1 chain 1 with G281R, L315G
chain 2: B1 chain 2
notes: as for B1
B3: Fc-IL-2v heterodimer 86.46 (hIL-2v_Δ1-5_F42A_C125S) (Fc fusion)
chain 1: B1 chain 1 with G281R, F285A
chain 2: B1 chain 2
notes: as for B1
B4: Fc-IL-2v heterodimer 88.46 (hIL-2v_Δ1-5_Y45A_C125S) (Fc fusion)
chain 1: B1 chain 1 with G281R, Y288A
chain 2: B1 chain 2
notes: as for B1
B5: Fc-IL-2v heterodimer 87.46 (hIL-2v_Δ1-5_Y45G_C125S) (Fc fusion)
chain 1: B1 chain 1 with G281R, Y288G
chain 2: B1 chain 2
notes: as for B1
B6: Fc-IL-2v heterodimer 83.46 (hIL-2v_Δ1-5_T41G_C125S) (Fc fusion)
chain 1: B1 chain 1 with G281R, T284G
chain 2: B1 chain 2
notes: as for B1
B7: Fc-IL-2v heterodimer 93.46 (hIL-2v_Δ1-5_Q74G_C125S) (Fc fusion)
chain 1: B1 chain 1 with G281R, Q317G
chain 2: B1 chain 2
notes: as for B1
B8: Fc-IL-2v heterodimer 89.46 (hIL-2v_Δ1-5_E61A_C125S) (Fc fusion)
chain 1: B1 chain 1 with G281R, E304A
chain 2: B1 chain 2
notes: as for B1
B9: Fc-IL-2v heterodimer 91.46 (hIL-2v_Δ1-5_E68A_C125S) (Fc fusion)
chain 1: B1 chain 1 with G281R, E311A
chain 2: B1 chain 2
notes: as for B1
B10: Fc-IL-2v heterodimer 90.46 (hIL-2v_Δ1-5_E62A_C125S) (Fc fusion)
chain 1: B1 chain 1 with G281R, E305A
chain 2: B1 chain 2
notes: as for B1
B11: Fc heterodimer without a fused IL-2 moiety (heterodimer name: 260:261) (other)
chain 1: B1 chain 2 with S148W, A150L, V189Y, R217H, F218Y
chain 2: B1 chain 2
notes: negative control; also called control Fc protein with no IL-2 fusion

Biological target: T1, trimeric murine IL-2 receptor (IL-2Rα, …)
Test: cell-based or functional assay

Compared with B1, B2 is 35-fold higher in “STAT5 activation of CTLL-2 cells, EC50” value: 0.02 nM for the first, 0.7 nM for the second.

Compared with B3, B4 is 10-fold lower in “STAT5 activation of CTLL-2 cells, EC50” value: 1 nM for the first, 0.1 nM for the second.

First: B5
Second: B6
The “STAT5 activation of CTLL-2 cells, EC50” value of the first is 5-fold higher: 0.2 nM for the first, 0.04 nM for the second.

Compared with B7, B8 is 10-fold higher in “STAT5 activation of CTLL-2 cells, EC50” value: 0.002 nM for the first, 0.02 nM for the second.

Going from B9 to B10, the “STAT5 activation of CTLL-2 cells, EC50” value rises from 0.001 nM to 2 nM (2000-fold).

Biological target: T2, human IL-2Rα on Treg cells (CD3+, CD4+, …)
Test: cell-based or functional assay

Going from B1 to B2, the “Treg EC50, STAT5 activation (PBMC STAT5 assay)” value (from here on “Treg EC50, STAT5 activation”) falls from 0.07 nM to less than 0.001 nM.

Compared with B3, B4 is lower in “Treg EC50, STAT5 activation” value: 0.3 nM for the first, less than 0.001 nM for the second.

First: B5
Second: B6
The “Treg EC50, STAT5 activation” value of the first is higher: 0.03 nM for the first, less than 0.001 nM for the second.

Going from B7 to B8, the “Treg EC50, STAT5 activation” value rises from less than 0.001 nM to 0.04 nM.

Compared with B9, B10 is higher in “Treg EC50, STAT5 activation” value: less than 0.001 nM for the first, 0.08 nM for the second.

Biological target: T3, IL-2Rα (recombinant IL-2 receptor α, …)
Test: SPR (Biacore), C1 or CM5 chip, biotinylated receptor on neutravidin
Text: (§1) Data for binding of Fc-IL-2 variant fusion proteins to IL-2Rα, IL-2Rβ and IL-2Rβγ heterodimer were collected on a Biacore platform using either C1 or CM5 chips. Neutravidin was immobilized using standard amine coupling methods and used to capture biotinylated receptors. Commercially sourced IL-2Rα (R&D Systems Cat #: 223-2A/CF) and IL-2Rβ receptors (R&D Systems Cat #:224-2B-025/CF) were biotinylated using sulfo-NHS-LC-LC-Biotin, desalted, and then captured on the neutravidin surfaces. […] Distinct purification tags were appended to the C-terminus of each chain. A FLAG epitope tag ([…]; SEQ ID NO: 257) was added at the C-terminus of IL-2Rβ subunit, followed by C-terminal Hiss tag ([…]; SEQ ID NO: 258). An AviTag™ ([…]; SEQ ID NO: 259) motif on the IL-2Rγ subunit allowed for site-specific biotinylation of the heterodimer.
(§2) Fc IL 2 fusion protein variants, Fc protein, and Proleukin were injected at various concentrations over these surfaces. Kinetic data obtained from these injections was used to extract kₒₙ and koff to calculate KD (KD=koff/kₒₙ). Experiments were run at 25° C. in HBS-EP+ running buffer (10 mM HEPES, 150 mM NaCl, 3 mM EDTA, 0.05% Tween20, pH 7.4 with 0.1 mg/ml BSA). Data shown in Table 5 for Fc IL-2 fusion protein variants binding to the indicated IL-2R surfaces were derived from the global fitting of data obtained from 2-5 independent surfaces.

B1 and B2 are within 1.5-fold of each other in Kd: 685 nM for the first, 503 nM for the second.

First: B3
Second: B4
The Kd of the first is 17-fold higher: 2000 nM for the first, 120 nM for the second.

Compared with B5, B6 is 9.3-fold lower in Kd: 269 nM for the first, 29 nM for the second. The second binds more tightly here.

First: B7
Second: B8
The Kd of the first is 20-fold lower: 21 nM for the first, 419 nM for the second. The first binds more tightly here.

Compared with B9, B10 is 75-fold higher in Kd: 32 nM for the first, 2400 nM for the second. The first binds more tightly here.

In the case of B1, the “fold larger effect on reducing IL-2Rα affinity against R38A (heterodimer 82.46)” value is reported as 6 fold.

B11: no binding.

Biological target: T4, IL-2Rβ (recombinant IL-2 receptor β, …)
Test: as above
Text: as §1, §2

B1 and B2 are within 1.5-fold of each other in Kd: 7 µM for the first, 8 µM for the second.

B3 and B4 are within 1.5-fold of each other in Kd: 7.1 µM for the first, 8 µM for the second.

B5 and B6 are within 1.5-fold of each other in Kd: 7 µM for the first, 7.3 µM for the second.

B7 and B8 are within 1.5-fold of each other in Kd: 8.2 µM for the first, 8.8 µM for the second.

B9 and B10 are within 1.5-fold of each other in Kd: 5.9 µM for the first, 8.1 µM for the second.

B11: no binding.

Biological target: T5, IL-2Rβγ heterodimer, custom biotinylated Fc fusion protein (human IL-2Rβ 27-240-Fc-FLAG / human IL-2Rγ … (human, site-specific biotinylation at the AviTag))
T5 construct: Extracellular regions fused to IgG1 knob-in-hole Fc subunits with tags; also called IL-2 receptor βγ heterodimer; Fc-IL-2Rβγ
Test: as above
Text: as §1, §2

T5 sequence (chain, as listed by the source limits assumed): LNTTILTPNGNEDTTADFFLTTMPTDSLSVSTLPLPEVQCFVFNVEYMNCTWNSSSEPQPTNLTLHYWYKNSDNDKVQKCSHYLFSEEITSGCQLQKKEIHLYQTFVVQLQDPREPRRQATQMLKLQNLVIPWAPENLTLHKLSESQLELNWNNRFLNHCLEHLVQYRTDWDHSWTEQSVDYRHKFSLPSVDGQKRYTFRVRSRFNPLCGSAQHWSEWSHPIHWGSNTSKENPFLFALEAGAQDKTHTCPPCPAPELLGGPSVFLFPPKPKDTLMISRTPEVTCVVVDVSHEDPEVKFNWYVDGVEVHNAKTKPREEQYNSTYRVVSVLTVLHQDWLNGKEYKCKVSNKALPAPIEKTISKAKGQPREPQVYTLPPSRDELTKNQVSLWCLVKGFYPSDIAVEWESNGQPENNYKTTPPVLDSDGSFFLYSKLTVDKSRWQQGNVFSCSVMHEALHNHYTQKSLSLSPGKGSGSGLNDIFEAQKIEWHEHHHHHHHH

B1 and B3 are within 1.5-fold of each other in Kd: 0.071 nM for the first, 0.094 nM for the second.

First: B5
Second: B6
The Kd of the first is 9.4-fold lower: 0.016 nM for the first, 0.15 nM for the second.

First: B8
Second: B10
The Kd of the first is 2.3-fold lower: 0.065 nM for the first, 0.152 nM for the second.

B11: no binding.
